Drawing on paper PMC11507878, this text covers fold increase of binding with Par-3 PDZ2 against without for one substance.

In this test the target is GST-fused Par-6 CRIB-PDZ (UniProt O97111). In words: pull-down.

On to “Par complex ΔCRIB-PDZ (full length aPKC with the Par-6 PB1 domain) (from UniProt A1Z9X0 1-606)”, for which the fold increase of binding with Par-3 PDZ2 against without was greater than 20 fold.
